Sequences and labels used below:
T1: recombinant human activated Factor VII (FVIIa) (human, UniProt P08709 61-212; P08709 213-466, ten glutamate residues of the Gla domain may be gamma-carboxylated)
T1 construct: chains tethered by a disulfide bond; also called Factor VIIa; rFVIIa
T1 sequence 1: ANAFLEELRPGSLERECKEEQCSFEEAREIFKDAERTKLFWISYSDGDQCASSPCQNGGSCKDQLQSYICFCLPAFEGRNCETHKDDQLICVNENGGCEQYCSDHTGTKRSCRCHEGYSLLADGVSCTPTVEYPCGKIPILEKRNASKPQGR
T1 sequence 2: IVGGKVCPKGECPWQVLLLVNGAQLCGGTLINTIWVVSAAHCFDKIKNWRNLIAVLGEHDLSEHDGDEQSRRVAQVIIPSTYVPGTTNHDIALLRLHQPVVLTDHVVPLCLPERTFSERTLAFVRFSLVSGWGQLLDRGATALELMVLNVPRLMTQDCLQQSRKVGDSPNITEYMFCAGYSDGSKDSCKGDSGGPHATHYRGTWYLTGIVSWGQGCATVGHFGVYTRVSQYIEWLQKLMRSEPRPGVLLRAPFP

B1: VH SEQ ID NO 570 / VL SEQ ID NO 470 (antibody, IgG4, V domains shown)
VH: QVQLQESGPGLVKPSDTLSLTCAVSGYSISSDSAWSWIRQPPGKGLEWIGYIQYSGSTNYNPSLKSRVTMSRDTSKNQFSLKLSSVTAADTAVYYCARSVNYYGNSFAVGPWGQGTLVTVSS
VL: EIVLTQSPATLSLSPGERATLSCRASQGVSDYLHWYQQKPGQAPRLLIKYASQPATGIPARFSGSGSGTDFTLTISSLEPEDFAVYYCQNGHSFPLTFGQGTKLEIK
notes: humanized 11F2; IgG4 S228P/kappa
B2: VH SEQ ID NO 578 / VL SEQ ID NO 334 (antibody, IgG4, V domains shown)
VH: QVQLQESGPGLVKPSDTLSLTCAVSGYSISSDSAWSWIRQPPGKGLEWIGYIQYSGSTNYNPSLKSRVTMSVDTSKNQFSLKLSSVTALDTAVYYCARSVNYYGNSFAVGPWGQGTLVTVSS
VL: EIVLTQSPATLSLSPGERATLSCRASQGISDYLHWYQQKPGQAPRLLIKYASQPATGIPARFSGSGSGTDFTLTISSLEPEDFAVYYCQNGHSFPLTFGQGTKLEIK
notes: as for B1
B3: VH SEQ ID NO 578 / VL SEQ ID NO 358 (antibody, IgG4, V domains shown)
VH: QVQLQESGPGLVKPSDTLSLTCAVSGYSISSDSAWSWIRQPPGKGLEWIGYIQYSGSTNYNPSLKSRVTMSVDTSKNQFSLKLSSVTALDTAVYYCARSVNYYGNSFAVGPWGQGTLVTVSS
VL: EIVLTQSPATLSLSPGERATLSCRASQGISDYLHWYQQKPGQAPRLLIKYTSQPATGIPARFSGSGSGTDFTLTISSLEPEDFAVYYCQNGHSFPLTFGQGTKLEIK
notes: as for B1
B4: VH SEQ ID NO 578 / VL SEQ ID NO 454 (antibody, IgG4, V domains shown)
VH: QVQLQESGPGLVKPSDTLSLTCAVSGYSISSDSAWSWIRQPPGKGLEWIGYIQYSGSTNYNPSLKSRVTMSVDTSKNQFSLKLSSVTALDTAVYYCARSVNYYGNSFAVGPWGQGTLVTVSS
VL: EIVLTQSPATLSLSPGERATLSCRASQGVSDYLHWYQQKPGEAPRLLIKYASQPATGIPARFSGSGSGTDFTLTISSLEPEDFAVYYCQNGHSFPLTFGQGTKLEIK
notes: as for B1
B5: VH SEQ ID NO 578 / VL SEQ ID NO 462 (antibody, IgG4, V domains shown)
VH: QVQLQESGPGLVKPSDTLSLTCAVSGYSISSDSAWSWIRQPPGKGLEWIGYIQYSGSTNYNPSLKSRVTMSVDTSKNQFSLKLSSVTALDTAVYYCARSVNYYGNSFAVGPWGQGTLVTVSS
VL: EIVLTQSPATLSLSPGERATLSCRASQGVSDYLHWYQQKPGQAPRLLIKYASQPATGIPARFSGSGSGTDFTLTISSLEPEDFAVYYCQNGHSFPLTFGAGTKLEIK
notes: as for B1
B6: VH SEQ ID NO 578 / VL SEQ ID NO 318 (antibody, IgG4, V domains shown)
VH: QVQLQESGPGLVKPSDTLSLTCAVSGYSISSDSAWSWIRQPPGKGLEWIGYIQYSGSTNYNPSLKSRVTMSVDTSKNQFSLKLSSVTALDTAVYYCARSVNYYGNSFAVGPWGQGTLVTVSS
VL: EIVLTQSPATLSLSPGERATLSCRASQGISDYLHWYQQKPGEAPRLLIKYTSQPATGIPARFSGSGSGTDFTLTISSLEPEDFAVYYCQNGHSFPLTFGQGTKLEIK
notes: as for B1
B7: VH SEQ ID NO 578 / VL SEQ ID NO 502 (antibody, IgG4, V domains shown)
VH: QVQLQESGPGLVKPSDTLSLTCAVSGYSISSDSAWSWIRQPPGKGLEWIGYIQYSGSTNYNPSLKSRVTMSVDTSKNQFSLKLSSVTALDTAVYYCARSVNYYGNSFAVGPWGQGTLVTVSS
VL: EIVLTQSPATLSLSPGERATLSCRASQGVSDYLHWYQQKPGQAPRLLIKYTSQPATGIPARFSGSGSGTDFTLTISSLEPEDFAVYYCQNGHSFPLTFGQGTKLEIK
notes: as for B1
B8: VH SEQ ID NO 570 / VL SEQ ID NO 502 (antibody, IgG4, V domains shown)
VH: QVQLQESGPGLVKPSDTLSLTCAVSGYSISSDSAWSWIRQPPGKGLEWIGYIQYSGSTNYNPSLKSRVTMSRDTSKNQFSLKLSSVTAADTAVYYCARSVNYYGNSFAVGPWGQGTLVTVSS
VL: EIVLTQSPATLSLSPGERATLSCRASQGVSDYLHWYQQKPGQAPRLLIKYTSQPATGIPARFSGSGSGTDFTLTISSLEPEDFAVYYCQNGHSFPLTFGQGTKLEIK
notes: as for B1
B9: VH SEQ ID NO 578 / VL SEQ ID NO 478 (antibody, IgG4, V domains shown)
VH: QVQLQESGPGLVKPSDTLSLTCAVSGYSISSDSAWSWIRQPPGKGLEWIGYIQYSGSTNYNPSLKSRVTMSVDTSKNQFSLKLSSVTALDTAVYYCARSVNYYGNSFAVGPWGQGTLVTVSS
VL: EIVLTQSPATLSLSPGERATLSCRASQGVSDYLHWYQQKPGQAPRLLIKYASQPATGIPARFSGSGSGTDFTLTISSLEPEDFAVYYCQQGHSFPLTFGQGTKLEIK
notes: as for B1
B10: VH SEQ ID NO 570 / VL SEQ ID NO 478 (antibody, IgG4, V domains shown)
VH: QVQLQESGPGLVKPSDTLSLTCAVSGYSISSDSAWSWIRQPPGKGLEWIGYIQYSGSTNYNPSLKSRVTMSRDTSKNQFSLKLSSVTAADTAVYYCARSVNYYGNSFAVGPWGQGTLVTVSS
VL: EIVLTQSPATLSLSPGERATLSCRASQGVSDYLHWYQQKPGQAPRLLIKYASQPATGIPARFSGSGSGTDFTLTISSLEPEDFAVYYCQQGHSFPLTFGQGTKLEIK
notes: as for B1
B11: VH SEQ ID NO 578 / VL SEQ ID NO 430 (antibody, IgG4, V domains shown)
VH: QVQLQESGPGLVKPSDTLSLTCAVSGYSISSDSAWSWIRQPPGKGLEWIGYIQYSGSTNYNPSLKSRVTMSVDTSKNQFSLKLSSVTALDTAVYYCARSVNYYGNSFAVGPWGQGTLVTVSS
VL: EIVLTQSPATLSLSPGERATLSCRASQGVSDYLAWYQQKPGQAPRLLIKYASQPATGIPARFSGSGSGTDFTLTISSLEPEDFGVYYCQNGHSFPLTFGQGTKLEIK
notes: as for B1
B12: VH SEQ ID NO 570 / VL SEQ ID NO 494 (antibody, IgG4, V domains shown)
VH: QVQLQESGPGLVKPSDTLSLTCAVSGYSISSDSAWSWIRQPPGKGLEWIGYIQYSGSTNYNPSLKSRVTMSRDTSKNQFSLKLSSVTAADTAVYYCARSVNYYGNSFAVGPWGQGTLVTVSS
VL: EIVLTQSPATLSLSPGERATLSCRASQGVSDYLHWYQQKPGQAPRLLIKYASQPATGIPARFSGSGSGTDFTLTISSLEPEDVAVYYCQNGHSFPLTFGQGTKLEIK
notes: as for B1
B13: VH SEQ ID NO 570 / VL SEQ ID NO 486 (antibody, IgG4, V domains shown)
VH: QVQLQESGPGLVKPSDTLSLTCAVSGYSISSDSAWSWIRQPPGKGLEWIGYIQYSGSTNYNPSLKSRVTMSRDTSKNQFSLKLSSVTAADTAVYYCARSVNYYGNSFAVGPWGQGTLVTVSS
VL: EIVLTQSPATLSLSPGERATLSCRASQGVSDYLHWYQQKPGQAPRLLIKYASQPATGIPARFSGSGSGTDFTLTISSLEPEDFGVYYCQNGHSFPLTFGQGTKLEIK
notes: as for B1
B14: VH SEQ ID NO 578 / VL SEQ ID NO 494 (antibody, IgG4, V domains shown)
VH: QVQLQESGPGLVKPSDTLSLTCAVSGYSISSDSAWSWIRQPPGKGLEWIGYIQYSGSTNYNPSLKSRVTMSVDTSKNQFSLKLSSVTALDTAVYYCARSVNYYGNSFAVGPWGQGTLVTVSS
VL: EIVLTQSPATLSLSPGERATLSCRASQGVSDYLHWYQQKPGQAPRLLIKYASQPATGIPARFSGSGSGTDFTLTISSLEPEDVAVYYCQNGHSFPLTFGQGTKLEIK
notes: as for B1
B15: VH SEQ ID NO 578 / VL SEQ ID NO 382 (antibody, IgG4, V domains shown)
VH: QVQLQESGPGLVKPSDTLSLTCAVSGYSISSDSAWSWIRQPPGKGLEWIGYIQYSGSTNYNPSLKSRVTMSVDTSKNQFSLKLSSVTALDTAVYYCARSVNYYGNSFAVGPWGQGTLVTVSS
VL: EIVLTQSPATLSLSPGERATLSCRASQGLSDYLHWYQQKPGEAPRLLIKYASQPATGIPARFSGSGSGTDFTLTISSLEPEDFAVYYCQNGHSFPLTFGQGTKLEIK
notes: as for B1
B16: VH SEQ ID NO 578 / VL SEQ ID NO 342 (antibody, IgG4, V domains shown)
VH: QVQLQESGPGLVKPSDTLSLTCAVSGYSISSDSAWSWIRQPPGKGLEWIGYIQYSGSTNYNPSLKSRVTMSVDTSKNQFSLKLSSVTALDTAVYYCARSVNYYGNSFAVGPWGQGTLVTVSS
VL: EIVLTQSPATLSLSPGERATLSCRASQGISDYLHWYQQKPGQAPRLLIKYTSQPATGIPARFSGSGSGRDFTLTISSLEPEDFAVYYCQNGHSFPLTFGAGTKLELK
notes: as for B1
B17: VH SEQ ID NO 578 / VL SEQ ID NO 470 (antibody, IgG4, V domains shown)
VH: QVQLQESGPGLVKPSDTLSLTCAVSGYSISSDSAWSWIRQPPGKGLEWIGYIQYSGSTNYNPSLKSRVTMSVDTSKNQFSLKLSSVTALDTAVYYCARSVNYYGNSFAVGPWGQGTLVTVSS
VL: EIVLTQSPATLSLSPGERATLSCRASQGVSDYLHWYQQKPGQAPRLLIKYASQPATGIPARFSGSGSGTDFTLTISSLEPEDFAVYYCQNGHSFPLTFGQGTKLEIK
notes: as for B1
B18: VH SEQ ID NO 578 / VL SEQ ID NO 326 (antibody, IgG4, V domains shown)
VH: QVQLQESGPGLVKPSDTLSLTCAVSGYSISSDSAWSWIRQPPGKGLEWIGYIQYSGSTNYNPSLKSRVTMSVDTSKNQFSLKLSSVTALDTAVYYCARSVNYYGNSFAVGPWGQGTLVTVSS
VL: EIVLTQSPATLSLSPGERATLSCRASQGISDYLHWYQQKPGEAPRLLIKYTSQPATGIPARFSGSGSGTDFTLTISSLEPEDFGVYYCQNGHSFPLTFGAGTKLELK
notes: as for B1
B19: VH SEQ ID NO 578 / VL SEQ ID NO 350 (antibody, IgG4, V domains shown)
VH: QVQLQESGPGLVKPSDTLSLTCAVSGYSISSDSAWSWIRQPPGKGLEWIGYIQYSGSTNYNPSLKSRVTMSVDTSKNQFSLKLSSVTALDTAVYYCARSVNYYGNSFAVGPWGQGTLVTVSS
VL: EIVLTQSPATLSLSPGERATLSCRASQGISDYLHWYQQKPGQAPRLLIKYTSQPATGIPARFSGSGSGTDFTLTISSLEPEDFAVYYCQNGHSFPLTFGAGTKLELK
notes: as for B1
B20: VH SEQ ID NO 578 / VL SEQ ID NO 486 (antibody, IgG4, V domains shown)
VH: QVQLQESGPGLVKPSDTLSLTCAVSGYSISSDSAWSWIRQPPGKGLEWIGYIQYSGSTNYNPSLKSRVTMSVDTSKNQFSLKLSSVTALDTAVYYCARSVNYYGNSFAVGPWGQGTLVTVSS
VL: EIVLTQSPATLSLSPGERATLSCRASQGVSDYLHWYQQKPGQAPRLLIKYASQPATGIPARFSGSGSGTDFTLTISSLEPEDFGVYYCQNGHSFPLTFGQGTKLEIK
notes: as for B1

Consider 20 molecules from US20220064329A1 (Novo Nordisk, published 2022).

Broadly, the Kd is the equilibrium constant for the complex coming apart.

The experiment has as its target T1, recombinant human activated Factor VII …. As to the kind of experiment: BLI (Fortebio). In general terms: Biolayer interferometry detects binding as a change in optical thickness at a sensor tip.
For B1, the Kd was found to be 1.1 nM. As for B2, the Kd was determined as 22 nM. On to B3, for which the Kd was 19 nM. To B4 belongs 25 nM; to B5, 27 nM; to B6, 17 nM. On to B7, for which the Kd turned out to be 24 nM. Consider B8, for which the Kd is 0.92 nM.

With B9, the Kd was found to be 310 nM. On to B10, for which the Kd came out at 1.9 nM.

On to B11, for which the Kd came out at 820 nM.

B12: the Kd is 1.1 nM.

For the molecule B13, the Kd was 0.99 nM.

With B14, the Kd is 28 nM. On to B15, for which the Kd turned out to be 30 nM.

In the case of B16, the Kd was determined as 43 nM.

For B17, the Kd worked out at 25 nM. On to B18, for which the Kd was 16 nM. Turning to B19, the Kd came to 21 nM. With B20 the figure was 23 nM.
